T1: SynGSTC1 (Sll0067) (Synechocystis sp. PCC 6803, UniProt Q55139)
T1 construct: gene gst; Ni-NTA and size exclusion; about 180 residues; two-fold dimer in crystal
T1 sequence (Q55139 1-184): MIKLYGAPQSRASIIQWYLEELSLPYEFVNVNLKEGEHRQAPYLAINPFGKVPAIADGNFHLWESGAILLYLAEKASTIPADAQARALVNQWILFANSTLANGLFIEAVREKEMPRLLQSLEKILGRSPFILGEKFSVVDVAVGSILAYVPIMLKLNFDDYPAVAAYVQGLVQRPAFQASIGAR

T2: SynGSTC1 (Sll0067) (Synechocystis sp. PCC 6803, UniProt Q55139, S10C)
T2 construct: gene gst; Ni-NTA and size exclusion; about 180 residues; two-fold dimer in crystal
T2 sequence (Q55139 1-184 S10C): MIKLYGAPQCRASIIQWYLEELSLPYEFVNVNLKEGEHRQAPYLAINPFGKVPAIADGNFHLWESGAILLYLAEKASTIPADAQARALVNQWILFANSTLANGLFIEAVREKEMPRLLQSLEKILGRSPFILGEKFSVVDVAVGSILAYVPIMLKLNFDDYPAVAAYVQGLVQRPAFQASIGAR


Tests used:
SynGSTC1 (Sll0067) [1] = target: T1, SynGSTC1 (Sll0067); assay: GSH-conjugation assay, spectrophotometric […] nm, Michaelis-Menten fit; type: biochemical; settings: fixed saturating GSH; 30 mM Tris-HCl pH 8.0, 1 mM EDTA; 25 °C
SynGSTC1 (Sll0067) [2] = target: T1, SynGSTC1 (Sll0067); assay: as above; type: biochemical; settings: fixed saturating GSH; 100 mM phosphate pH 6.5; 25 °C
SynGSTC1 (Sll0067) [3] = target: T2, SynGSTC1 (Sll0067); assay: NADPH/glutathione reductase-coupled thiol-transferase assay, […] nm; type: biochemical; settings: fixed saturating GSH; 200 µM NADPH; 30 mM Tris-HCl pH 8.0; 25 °C; read-out: HED
[4] = target: glutathione transferase chi1 from Synechocystis sp. PCC 6803 (SynGSTC1), wild-type (Synechocystis sp. PCC 6803); assay: crystal structure; co-crystallised with 10 mM glutathione and 1 mM TCEP, microbatch under oil at 4 °C; space group P4(3)2(1)2, two polypeptide chains in the asymmetric unit
purified protein [5] = substrate: CC(C)(OO)c1ccccc1; assay: purified protein; settings: fixed GSH, 200 µM NADPH, 30 mM Tris-HCl pH 8.0, 25 °C
purified protein [6] = substrate: S=C=NCCc1ccccc1; assay: purified protein; type: biochemical, Synechocystis sp. PCC 6803; settings: fixed saturating GSH, 100 mM phosphate pH 6.5, 25 °C
purified protein [7] = substrate: CCCC(=O)Oc1ccc([N+](=O)[O-])cc1; assay: purified protein; type: biochemical, Synechocystis sp. PCC 6803; settings: fixed saturating GSH, 30 mM Tris-HCl pH 8.0, 1 mM EDTA, 25 °C

Molecule | Km (purified protein [6]) | kcat (purified protein [6]) | kcat/Km (purified protein [6]) | further results
O=[N+]([O-])c1ccc(Cl)c([N+](=O)[O-])c1 [1-chloro-2,4-dinitrobenzene] | – | – | – | Km (SynGSTC1 (Sll0067) [1]): 3790 ± 772 µM
S=C=NCc1ccccc1 [benzyl-isothiocyanate] | – | – | – | Km (SynGSTC1 (Sll0067) [2]): 82 ± 10 µM
OCCSSCCO [2-hydroxyethyl disulfide] | – | – | – | Km (SynGSTC1 (Sll0067) [3]): 3.3 ± 0.4 µM
glutathione transferase chi1 from Synechocystis sp. PCC 6803 (SynGSTC1), wild-type (enzyme) | – | – | – | stoichiometry N [4]: 2
SynGSTC1 (Sll0067) (Synechocystis sp. PCC 6803 substr. Kazusa) (protein, Ni-NTA and size exclusion; about 180 residues; two-fold dimer in crystal) MIKLYGAPQSRASIIQWYLEELSLPYEFVNVNLKEGEHRQAPYLAINPFGKVPAIADGNFHLWESGAILLYLAEKASTIPADAQARALVNQWILFANSTLANGLFIEAVREKEMPRLLQSLEKILGRSPFILGEKFSVVDVAVGSILAYVPIMLKLNFDDYPAVAAYVQGLVQRPAFQASIGAR | 33.8 ± 2.5 µM | 12.6 ± 0.2 s⁻¹ | 373000 ± 6000 M⁻¹ s⁻¹ | Km (purified protein [5]): 1508.0 ± 191.0 µM; kcat (purified protein [5]): 0.91 ± 0.06 s⁻¹; Km (purified protein [7]): 162.5 ± 18.3 µM; kcat (purified protein [7]): 0.48 ± 0.2 s⁻¹
SynGSTC1 (Sll0067) (Synechocystis sp. PCC 6803 substr. Kazusa; R11A) (protein, Ni-NTA and size exclusion; about 180 residues; two-fold dimer in crystal) MIKLYGAPQSAASIIQWYLEELSLPYEFVNVNLKEGEHRQAPYLAINPFGKVPAIADGNFHLWESGAILLYLAEKASTIPADAQARALVNQWILFANSTLANGLFIEAVREKEMPRLLQSLEKILGRSPFILGEKFSVVDVAVGSILAYVPIMLKLNFDDYPAVAAYVQGLVQRPAFQASIGAR | 108.4 ± 6.0 µM | 0.17 ± 0.003 s⁻¹ | 1530 ± 20 M⁻¹ s⁻¹ | –
SynGSTC1 (Sll0067) (Synechocystis sp. PCC 6803 substr. Kazusa; S10A) (protein, Ni-NTA and size exclusion; about 180 residues; two-fold dimer in crystal) MIKLYGAPQARASIIQWYLEELSLPYEFVNVNLKEGEHRQAPYLAINPFGKVPAIADGNFHLWESGAILLYLAEKASTIPADAQARALVNQWILFANSTLANGLFIEAVREKEMPRLLQSLEKILGRSPFILGEKFSVVDVAVGSILAYVPIMLKLNFDDYPAVAAYVQGLVQRPAFQASIGAR | 89.7 ± 6.4 µM | 2.6 ± 0.05 s⁻¹ | 28900 ± 600 M⁻¹ s⁻¹ | –
SynGSTC1 (Sll0067) (Synechocystis sp. PCC 6803 substr. Kazusa; S10C) (protein, Ni-NTA and size exclusion; about 180 residues; two-fold dimer in crystal) MIKLYGAPQCRASIIQWYLEELSLPYEFVNVNLKEGEHRQAPYLAINPFGKVPAIADGNFHLWESGAILLYLAEKASTIPADAQARALVNQWILFANSTLANGLFIEAVREKEMPRLLQSLEKILGRSPFILGEKFSVVDVAVGSILAYVPIMLKLNFDDYPAVAAYVQGLVQRPAFQASIGAR | 33.0 ± 3.0 µM | 1.19 ± 0.02 s⁻¹ | 36000 ± 600 M⁻¹ s⁻¹ | –
SynGSTC1 (Sll0067) (Synechocystis sp. PCC 6803 substr. Kazusa; S10T) (protein, Ni-NTA and size exclusion; about 180 residues; two-fold dimer in crystal) MIKLYGAPQTRASIIQWYLEELSLPYEFVNVNLKEGEHRQAPYLAINPFGKVPAIADGNFHLWESGAILLYLAEKASTIPADAQARALVNQWILFANSTLANGLFIEAVREKEMPRLLQSLEKILGRSPFILGEKFSVVDVAVGSILAYVPIMLKLNFDDYPAVAAYVQGLVQRPAFQASIGAR | 33.6 ± 2.6 µM | 7.2 ± 0.1 s⁻¹ | 214000 ± 4000 M⁻¹ s⁻¹ | –
